Assay results as given in patent US20230406922A1 (SIMCERE ZAIMING PHARMACEUTICAL, published 2023).
Blank lines part the entries; values can stand above or below the binder they belong to.

Key:
monkey CD19-his protein = monkey CD19-his protein (monkey); assay: ELISA, monkey CD19 coated
Protocol: After incubation for 2 h at 37° C., the plate was washed 3 times with PBS. […] After incubation for 1 h at 37° C., the plate was washed 5 times with PBS. A TMB substrate was added at 50 μL/well. After incubation at room temperature for 10 min, a stop solution (1.0 N HCl) was added at 50 μL/well. The OD450 nm values were read on an ELISA microplate reader (Multimode Plate Reader, EnSight, purchased from Perkin Elmer). […] The negative control antibody mIgG1 was an antibody against hen egg lysozyme, anti-hel-mIgG1 (purchased from Biointron, Cat. No. B118301), and the data in the table were OD450 nm values.
IgG control was mIgG1, S003-NB151-89 was a clone that is selected from a library constructed by peripheral blood collected from Alpaca immunized by human CD19-His and can bind to a monkey CD19-His protein, and was used as a positive control, and the data in the table were OD450 nm values.

murine CD19 protein = target: T1, murine CD19 protein (murine, UniProt P25918 19-287, limits assumed); assay: ELISA, murine CD19 coated
T1 construct: also called mouse CD19-his protein
T1 sequence (looked up): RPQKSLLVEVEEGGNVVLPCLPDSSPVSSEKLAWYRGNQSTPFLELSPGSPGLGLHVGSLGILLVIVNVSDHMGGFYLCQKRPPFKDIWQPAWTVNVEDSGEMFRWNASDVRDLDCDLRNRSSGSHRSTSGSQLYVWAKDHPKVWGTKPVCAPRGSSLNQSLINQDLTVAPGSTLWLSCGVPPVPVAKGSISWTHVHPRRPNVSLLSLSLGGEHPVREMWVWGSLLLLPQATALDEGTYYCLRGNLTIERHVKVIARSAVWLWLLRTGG

[1] = target: T2, cynomolgus monkey CD19 on peripheral blood B cells (cynomolgus monkey (Macaca fascicularis), UniProt A0A2K5W8L9 20-557); assay: FACS on cynomolgus monkey PBMC, gated on CD20-positive B cells
T2 construct: whole, on cells; also called cynomolgus monkey B cells
T2 sequence: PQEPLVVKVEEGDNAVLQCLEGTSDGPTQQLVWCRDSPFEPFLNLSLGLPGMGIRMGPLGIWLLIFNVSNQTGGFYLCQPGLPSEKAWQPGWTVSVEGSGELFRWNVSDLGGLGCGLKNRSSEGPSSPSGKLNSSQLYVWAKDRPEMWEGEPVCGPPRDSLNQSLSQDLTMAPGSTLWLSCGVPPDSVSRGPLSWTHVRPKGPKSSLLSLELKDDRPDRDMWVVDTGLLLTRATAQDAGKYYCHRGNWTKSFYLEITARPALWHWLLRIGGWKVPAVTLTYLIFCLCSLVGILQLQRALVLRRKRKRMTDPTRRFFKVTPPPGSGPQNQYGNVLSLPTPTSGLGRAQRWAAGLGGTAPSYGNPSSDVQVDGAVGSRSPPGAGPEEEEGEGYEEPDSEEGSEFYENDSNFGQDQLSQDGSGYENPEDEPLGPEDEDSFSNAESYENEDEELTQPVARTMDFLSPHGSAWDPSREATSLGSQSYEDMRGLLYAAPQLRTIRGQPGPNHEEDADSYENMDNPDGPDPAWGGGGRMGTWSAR
Protocol: Monkey peripheral blood mononuclear cells were extracted from fresh cynomolgus monkey peripheral blood (purchased from Shanghai Medicilon Inc.) according to Ficoll-Paque Plus (purchased from GE Healthcare, Cat. No. 171440-02). […] The cells were incubated at room temperature for 1 h. […] The cells were incubated at room temperature for 30 min in the dark, washed 5 times, gently resuspended in PBS, and assayed and analyzed by FACS (FACS Canto™, purchased from BD Biosciences), in which CD20 was used as a marker for B cells.

[2] = target: T3, monkey CD19, full length, on HEK293T cells (monkey, UniProt P15391 20-556 (human entry)); assay: FACS titration on HEK293T-monkey CD19 cells
T3 construct: The entry holds the signal peptide; also called HEK293T-monkey CD19
T3 chain: T2 sequence
Protocol: (§1) For suspension cells Raji, the medium supernatant was discarded by direct centrifugation, and the cell pellet was washed twice with PBS. After cell counting of the cells obtained in the last step, the cell pellet was resuspended to 2×10⁶ cells/mL with a blocking solution [PBS+2% (w/w) BSA] and added into a 96-well FACS reaction plate at 50 μL/well. […] After the plate was centrifuged and washed 5 times with a PBS buffer, the results were assayed and analyzed by FACS (FACS Canto™, purchased from BD Biosciences). Data analysis was performed by software (CellQuest) to obtain the mean fluorescence intensity (MFI) of the cells. Then, analysis was performed by software (GraphPad Prism8), data were fitted, and EC₅₀ values were calculated.
(§2) HEK293T-monkey CD19 cells were subjected to the FACS assay and data analysis according to the method described in Example 4.2.

[3] = target: T3, monkey CD19, full length, on HEK293T …; assay: FACS on HEK293T-monkey CD19 cells
Protocol: as §1, §2

OD450 at 0.0001 nM (monkey CD19-his protein): 0.05 OD450 | OD450 at 0.001 nM (monkey CD19-his protein): 0.05 OD450 | OD450 at 0.01 nM (monkey CD19-his protein): 0.05 OD450 | OD450 at 0.10 nM (monkey CD19-his protein): 0.05 OD450 | OD450 at 1.00 nM (monkey CD19-his protein): 0.05 OD450 | OD450 at 10.00 nM (monkey CD19-his protein): 0.05 OD450 | OD450 at 100.00 nM (monkey CD19-his protein): 0.09 OD450 | OD450 at 0.0001 nM (murine CD19 protein): 0.06 OD450 | OD450 at 0.001 nM (murine CD19 protein): 0.06 OD450 | OD450 at 0.01 nM (murine CD19 protein): 0.05 OD450 | OD450 at 0.10 nM (murine CD19 protein): 0.05 OD450 | OD450 at 1.00 nM (murine CD19 protein): 0.06 OD450 | OD450 at 10.00 nM (murine CD19 protein): 0.07 OD450 | OD450 at 100.00 nM (murine CD19 protein): 0.1 OD450
B1: FMC63-mIgG1 (antibody, V domains shown)
VH: EVKLQESGPGLVAPSQSLSVTCTVSGVSLPDYGVSWIRQPPRKGLEWLGVIWGSETTYYNSALKSRLTIIKDNSKSQVFLKMNSLQTDDTAIYYCAKHYYYGGSYAMDYWGQGTSVTVSS
VL: DIQMTQTTSSLSASLGDRVTISCRASQDISKYLNWYQQKPDGTVKLLIYHTSRLHSGVPSRFSGSGSGTDYSLTISNLEQEDIATYFCQQGNTLPYTFGGGTKLEITR
notes: Parent murine antibody; also called murine antibody FMC63

proportion of positive cells to B cells (%) at 1 nM [1]: 3% | proportion of positive cells to B cells (%) at 10 nM [1]: 14% | proportion of positive cells to B cells (%) at 100 nM [1]: 71% | EC50 (read off the curve) [2]: ~0.4 nM | EC50 [3]: 2.08 nM | maximum mean fluorescence intensity [3]: 19500 MFI
B2: 9G8-mIgG1 (antibody, V domains shown)
VH: EVQLVQSGAEVKKPGESLKISCKGSGYSFTSYWIGWVRQMPGKGLEWMGIIYPGDSDTRYSPSFQGQVTISADKSISTAYLQWSSLKASDTAMYYCARGVSGIYNLHGFDIWGQGTLVTVSS
VL: DIQMTQSPSSLSASVGDRVTITCRASQSISSYLNWYQQKPGKAPKLLIYAASSLQSGVPSRFSGSGSGTDFTLTISSLQPEDFATYYCQQGRFGSPFTFGQGTKVEIKR
notes: Control anti-CD19 antibody with monkey cross-activity
